Data: publication PMC4768041

Experiments:
Experiment in all cases: SPR
Details in all cases: BIACORE 3000, RsmA-His6 (961 RU) on NTA chip; running buffer 10 mM Tris-HCl pH 7.5, 150 mM NaCl, 0.05% Tween (v/v), 1 mM [text truncated]; solutions degassed …
[1] = system: RsmA-His6 (Pseudomonas aeruginosa)
[2] = system: RsmA-His6 (Pseudomonas aeruginosa); remark: listed apart in the source
[3] = system: RsmA-His6 (Pseudomonas aeruginosa); remark: listed apart in the source

cupA1 leader RNA
binding signal (% lower RU than rsmZ RNA) [1]: 67
binding signal (% lower RU than rsmZ RNA) [2]: 59
binding signal (% lower RU than rsmZ RNA) [3]: 50
